According to paper PMC5663926, “In vivo near-infrared imaging of ErbB2 expressing breast tumors with dual-axes confocal endomicroscopy using a targeted peptide” (Scientific Reports, 2017):
Like-named read-outs stand apart in the source and are kept apart here. Residues, ends and D or L forms follow the SMILES beside them. *: point of attachment. X1 = CC1(C)C(/C=C/C2=C(Oc3ccc(S(=O)(=O)O)cc3)C(=C/C=C3/N(CCCCS(=O)(=O)[O-])c4ccc(S(=O)(=O)O)cc4C3(C)C)/CCC2)=[N+](CCCCCC(=O)NCCN2C(=O)CC(*)C2=O)c2ccc(S(=O)(=O)O)cc21

Assays:
[1] = system: BT474 and MDA-MB-231 human xenograft breast tumors in nude mice; experiment: In vivo photoacoustic imaging of peptide uptake in xenograft breast tumors; design: species or system nude mouse
Description: (§1) BT474 cells were diluted in growth factor reduced (GFR) Matrigel Matrix (Corning), and injected into one flank of female nude athymic mice (002019 Foxn1 , Jackson Laboratory) at 4–6 weeks of age with weight between 20–25 grams. A 0.18 mg 17-β-Estradiol pellet (#SE-121, Innovative Research of America) with 60 day release form was placed subcutaneously around the neck 1 day prior to tumor implantation to stimulate tumor growth. ∼1 × 10^7 cells were implanted for each tumor, and 2–3 implantations were performed in each mouse. MDA-MB-231 tumors were generated similarly except without Matrigel Matrix injection and only one implantation was performed in each mouse. Tumor size was monitored by ultrasound and MRI weekly. For all in vivo animal experiments, anesthesia was induced and maintained with inhaled isoflurane mixed with oxygen at a concentration of 2–4% at a flow rate of ~0.5 L/min via a nose cone.
(§2) We used photoacoustic tomography (Nexus128, Endra Inc) to measure peptide uptake by the human xenograft breast tumors. This system provides laser excitation with 7 ns pulses, 25 mJ/pulse, […] repetition rate, and tunable wavelength from 680 nm to 950 nm. The acoustic signal was collected with 128 unfocused (3 mm diameter) ultrasound transducers with 5 MHz center frequency assembled in a hemispherical bowl in a helical pattern. Water was added to the bowl to transmit the acoustic signal. We collected photoacoustic images with 120 views at 60 pulses/view. Each image covered a volume of 25 × 25 × 25 mm^3 with a voxel size of 280 μm^3, and each dataset required ~6–7 min for acquisition.
(§3) For imaging, the animals were placed inside a tray with the tumor positioned inside a water-filled dimple that couples the ultrasound signal. KSP*-IR800 was injected via tail vein at a concentration of 300 μM in a volume of 250 μL. Photoacoustic images were acquired at 0, 1, 2, 3, 6, 12, and 24 hours post-injection using λex = 780 nm excitation. PPS*-IR800 was administered in the same animal 48 hours later for control after the target peptide cleared as defined by T/B ratio returning to ∼1. IRDye800 (fluorophore without peptide) at the same concentration was also administered for control.
(§4) After completion of imaging, 3D images were reconstructed using data acquired from all 128 transducers at each view using a back-projection algorithm to correct for variations in laser intensity from pulse-to-pulse and small changes in temperature that affect the velocity of acoustic waves in water. The reconstructed raw data was analyzed using Osirix 6.5.2 software (Pixmeo) to generate a maximum intensity projection (MIP) image. To calculate the T/B ratio, the mean photoacoustic signal was measured from the tumor (target) using a circular ROI function on 2D MIP images. For background, we used the same ROI as that for the tumor prior to injection of peptide. The adjacent annulus with same area was used measure the background.

[2] = Sprague-Dawley rats; cited from earlier work
Excerpt: We validated specific binding of this peptide labeled with IRDye800CW to ErbB2 using siRNA knockdown and competition with cells in vitro and with immunohistochemistry and immunofluorescence studies on tissue specimens using known monoclonal anti-ErbB2 antibodies. Also, we have previously used peptides labeled with fluorescein isothiocyanate (FITC) in human clinical studies in hollow organs[25],[26]. We used IRDye800CW to image breast can ...

[3] = system: tumor and internal organs of tumor-bearing mouse; experiment: Peptide biodistribution ex vivo; assay type: in vivo; conditions: n = 5 mice
Excerpt: (§5) High peptide uptake seen from the kidneys is consistent with renal clearance.
Figure 5 Peptide biodistribution. […] Strong signal from kidneys support renal clearance. (C) Quantified fluorescence intensities are shown for tumor and other organs from n = 5 mice. We fit a two-way ANOVA model to log-transformed data with terms for 11 tissues and 5 mice and tested each tissue mean against the mean for tumors. Kidney had 1.7 times more intense signals on average (P = 0.03), while all other tissues had at least 2-fold lower signals than tumor on average (P = 0.008 for lung was the largest P-value).

[4] = In vivo photoacoustic imaging of peptide uptake in xenograft breast tumors; design: species or system human xenograft, nude mouse; conditions: female, nude athymic (002019 Foxn1 <nu>), mouse, in vivo, iv, 75 nmol per mouse, BT474 and MDA-MB-231 tumors, tail vein, 300 μM in 250 μL
Description: as §1, §2, §3, §4

[5] = Histology (H&E) for acute toxicity; assay type: in vivo, mouse; conditions: mice euthanized after imaging; KSP*-IR800 by tail vein
Excerpt: as §5

SMILES	time of peak signal ([1]; IRDye800 without peptide, same concentration, post-injection)	photoacoustic tumor signal of fluorophore alone ([1]; IRDye800 without peptide, same concentration, qualitative)	intravenous dose up to which safety was published [2]	kidney signal relative to tumor (times more intense) ([3]; 1 hour after injection, two-way ANOVA, P = 0.03)	signal in all other tissues than kidney, fold lower than tumor ([3]; liver, heart, stomach, brain, lung, spleen, small intestine, cecum, colon, 1 hour after injection, largest P = 0.008 (lung))	fluorescence intensity from tumor compared with other organs ([3]; qualitative)	time of rapid tumor uptake ([1]; photoacoustic tomography, systemic administration, nude mice (Discussion))	T/B ratio at ∼24 hours (clearance) ([1]; ∼24 hours post-injection, tail vein, 300 μM in 250 μL)	time after injection ([4]; read-out: time to return to baseline levels (T/B ratio))	time after injection ([4]; λex = 780 nm, read-out: time of peak peptide uptake (T/B ratio))	acute toxicity on histology (H&E) [5]
CC1(C)C(/C=C/C2=C(Oc3ccc(S(=O)(=O)O)cc3)C(=C/C=C3/N(CCCCS(=O)(=O)O)c4ccc(S(=O)(=O)[O-])cc4C3(C)C)/CCC2)=[N+](CCCCCC(=O)O)c2ccc(S(=O)(=O)O)cc21 [IRDye800, reference compound]	2 h	significantly lower signal	up to 20 mg/kg								
CC1(C)C(/C=C/C2=C(Oc3ccc(S(=O)(=O)O)cc3)C(=C/C=C3/N(CCCCS(=O)(=O)[O-])c4ccc(S(=O)(=O)O)cc4C3(C)C)/CCC2)=[N+](CCCCCC(=O)NCCN2C(=O)CC(SC[C@H](NC(=O)[C@H](CO)NC(=O)CNC(=O)CNC(=O)CNC(=O)[C@H](Cc3ccccc3)NC(=O)[C@H](CCCNC(=N)N)NC(=O)[C@@H]3CCCN3C(=O)[C@H](CC(N)=O)NC(=O)[C@@H]3CCCN3C(=O)[C@H](CO)NC(=O)[C@@H](N)CCCCN)C(N)=O)C2=O)c2ccc(S(=O)(=O)O)cc21 (some centres unmarked) [KSP*-IR800] (H-KSPNPRFGGGSC(X1)-NH2)				1.7 times	at least 2 fold	significantly greater fluorescence intensity from the tumor	~1 h	~1	~24	1	no acute toxicity
